Earlier results on 3 compounds are cited in patent US20250332099A1, “PROCESS FOR FORMULATING COMPOSITIONS COMPRISING GLUCAGON-LIKE-PEPTIDE-2 (GLP-2) ANALOGUES” (ZEALAND PHARMA A/S, priority 2021, published 2025).

As for “Hy-His-Ala-Asp-Gly-Ser-Phe-Ser-Asp-Glu-Met-Asn-Thr-Ile-Leu-Asp-Asn-Leu-Ala-Ala-Arg-Asp-Phe-Ile-Asn-Trp-Leu-Ile-Gln-Thr-Lys-Ile-Thr-Asp-OH [GLP-2 [1-33]]”, the half-life in humans result is “around 7 minutes”. Regarding “GLP-2 [3-33]: truncated GLP-2 [3-33] (DGSFSDEMNTILDNLAARDFINWLIQTKITD; Glucagon-like peptide 2; UniProt P01275 148-178, looked up, fragment)”, the half-life in humans is 27 min. Take `CC[C@H](C)[C@H](NC(=O)[C@H](Cc1ccccc1)NC(=O)[C@H](CC(=O)O)NC(=O)[C@H](CCCNC(=N)N)NC(=O)[C@H](C)NC(=O)[C@H](C)NC(=O)[C@H](CC(C)C)NC(=O)[C@H](CC(N)=O)NC(=O)[C@H](CC(=O)O)NC(=O)[C@H](CC(C)C)NC(=O)[C@@H](NC(=O)[C@@H](NC(=O)[C@H](CC(N)=O)NC(=O)[C@H](CCSC)NC(=O)[C@H](CCC(=O)O)NC(=O)[C@H](CC(=O)O)NC(=O)[C@H](CO)NC(=O)[C@H](Cc1ccccc1)NC(=O)[C@H](CO)NC(=O)CNC(=O)[C@H](CC(=O)O)NC(=O)CNC(=O)[C@@H](N)Cc1c[nH]cn1)[C@@H](C)O)[C@@H](C)CC)C(=O)N[C@@H](CC(N)=O)C(=O)N[C@@H](Cc1c[nH]c2ccccc12)C(=O)N[C@@H](CC(C)C)C(=O)N[C@H](C(=O)N[C@@H](CCC(N)=O)C(=O)N[C@H](C(=O)N[C@@H](CCCCN)C(=O)N[C@H](C(=O)N[C@H](C(=O)N[C@@H](CC(=O)O)C(=O)O)[C@@H](C)O)[C@@H](C)CC)[C@@H](C)O)[C@@H](C)CC` [teduglutide]: for the setting “compared with seven minutes for native GLP-2”, the half-life entry was “about two”.
